According to patent US20120082679A1 (Merck Sharp & Dohme, published 2012):
Residue numbers refer to the chain shown, from its start. Like-named read-outs stand apart in the source and are kept apart here.

B1: 1CX1G08 (Fab, V domains shown)
VH: QVQLVESGGGLVQPGGSLRLSCAASGFTFSDYWVSWVRQAPGKGLEWVSFISYDGSSTYYADSVKGRFTISRDNSKNTLYLQMNSLRAEDTAVYYCARTYFEGVDVWGQGTLVTVSS
VL: DIELTQPPSVSVAPGQTARISCSGDNIGTYYVHWYQQKPGQAPVLVIYDDSNRPSGIPERFSGSNSGNTATLTISGTQAEDEADYYCGTWDNTSFNLVFGGGTKLTVLG
notes: also called 1CX1G08 Fab
B2: 3CX4B08 (Fab, V domains shown)
VH: QVQLVESGGGLVQPGGSLRLSCAASGFTFSNYTMNWVRQAPGKGLEWVSFISSSSSETYYADSVKGRFTISRDNSKNTLYLQMNSLRAEDTAVYYCARGYGDMVDLWGQGTLVTVSS
VL: DIELTQPPSVSVAPGQTARISCSGDSIPTYYVAWYQQKPGQAPVLVIYSDTDRPSGIPERFSGSNSGNTATLTISGTQAEDEADYYCQSFDNHGYHVFGGGTKLTVLG
notes: also called 3CX4B08 Fab
B3: 3BX5C01 (Fab, V domains shown)
VH: QVQLVQSGAEVKKPGESLKISCKGSGYSFTSYGISWVRQMPGKGLEWMGMIDPSDSFTTYSPSFQGQVTISADKSISTAYLQWSSLKASDTAMYYCARGYYFTYALQPMDHWGQGTLVTVSS
VL: DIELTQPPSVSVAPGQTARISCSGDNLRDYIVHWYQQKPGQAPVLVIYDDSNRPSGIPERFSGSNSGNTATLTISGTQAEDEADYYCGFDNGGDIDVFGGGTKLTVLG
notes: also called 3BX5C01 Fab
B4: 3CX2A06 (Fab, V domains shown)
VH: QVQLVQSGAEVKKPGESLKISCKGSGYSFSNFWIAWVRQMPGKGLEWMGIIDPSDSWTRYSPSFQGQVTISADKSISTAYLQWSSLKASDTAMYYCARGDGQDFDNWGQGTLVTVSS
VL: DIQMTQSPSSLSASVGDRVTITCRASQNINSYLNWYQQKPGKAPKLLIYAASSLQSGVPSRFSGSGSGTDFTLTISSLQPEDFAVYYCLQNYDLPNTFGQGTKVEIKR
notes: No SPR values are printed for this Fab; also called 3CX2A06 Fab
B5: 3CX3D02 (Fab, V domains shown)
VH: QVQLVQSGAEVKKPGESLKISCKGSGYSFTNSWIGWVRQMPGKGLEWMGIIYPSDSYTIYSPSFQGQVTISADKSISTAYLQWSSLKASDTAMYYCARGGGYYYALMDVWAQGTLVTVSS
VL: B4 VL with N28T, N30S, S31T, Y32W, V85T, N91D, Y92S, D93S, N96L
notes: also called 3CX3D02 Fab

Columns and labels:
[1] = biological target: T1, recombinant human PCSK9, V5-, His-tagged (human, UniProt Q8NBP7 31-692, limits assumed); assay: SPR (Biacore 2000), Direct & Ab Capture, mean N = 3
T1 construct: Purified recombinant tagged protein; The background says that secreted PCSK9 is autocatalytically cleaved and the cleaved prodomain stays associated; also called hPCSK9; hPCSK9v5His; not shown: V5 and His tags
T1 sequence (Q8NBP7 31-692 limits assumed): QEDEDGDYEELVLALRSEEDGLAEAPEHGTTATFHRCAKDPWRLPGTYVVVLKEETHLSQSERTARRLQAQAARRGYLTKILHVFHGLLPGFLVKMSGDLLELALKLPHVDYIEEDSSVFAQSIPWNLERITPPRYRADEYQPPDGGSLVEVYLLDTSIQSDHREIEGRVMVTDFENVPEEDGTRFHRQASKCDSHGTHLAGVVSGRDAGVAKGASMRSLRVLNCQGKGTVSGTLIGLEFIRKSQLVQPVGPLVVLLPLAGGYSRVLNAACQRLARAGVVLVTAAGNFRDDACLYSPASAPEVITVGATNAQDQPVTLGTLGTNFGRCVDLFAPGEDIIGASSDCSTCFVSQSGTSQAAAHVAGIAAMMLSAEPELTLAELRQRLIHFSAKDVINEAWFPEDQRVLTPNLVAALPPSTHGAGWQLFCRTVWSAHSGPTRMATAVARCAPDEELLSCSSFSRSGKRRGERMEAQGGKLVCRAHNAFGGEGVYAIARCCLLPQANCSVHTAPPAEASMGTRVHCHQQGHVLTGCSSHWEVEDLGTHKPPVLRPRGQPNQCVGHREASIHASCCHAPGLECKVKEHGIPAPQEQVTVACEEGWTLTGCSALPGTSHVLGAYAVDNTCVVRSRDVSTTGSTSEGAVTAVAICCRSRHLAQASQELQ
Procedure: SPR measurements were performed using a Biacore™ (Pharmacia Biosensor AB, Uppsala, Sweden) 2000 system. Sensor chip CM5 and Amine coupling kit for immobilization were from Biacore™.
Anti-Fab IgG (Human specific) was covalently coupled to surfaces 1 and 2 of a Sensor Chip CM5 via primary amine groups, using the immobilization wizard with the “Aim for immobilization” option. A target immobilization of 5000 RU was specified. The wizard uses a 7 minute activation with a 1:1 mixture of 100 mM NHS and 400 mM EDC; injects the ligand in several pulses to achieve the desired level, then deactivates the remaining surface with a 7 minute pulse of ethanolamine.
Anti-PCSK9 Fabs were captured on capture surface 2 and surface 1 was used as a reference for kinetic studies of Fab:PCSK9 interactions. Fab was captured by flowing a 500 ng/ml solution at 5 μl/min for 1-1.5 minutes to reach a target RL for an Rₘₐₓ of 100-150 RU for the reaction. 5-10 concentrations of hPCSK9v5H is or mPCSK9v5H is antigens were flowed across the surface at 30 μl/minute for 3-4 minutes. 15-60 minutes dissociation time was allowed before regeneration of the Anti-Fab surface with a 30 second pulse of 10 mM glycine pH 2.0.

[2] = biological target: T1, recombinant human PCSK9, V5-, His-tagged; assay: cell-based or functional assay
[3] = biological target: T1, recombinant human PCSK9, V5-, His-tagged; assay: cell-based or functional assay; remark: listed apart in the source
[4] = biological target: T2, V5-, His-tagged secreted alkaline phosphatase protein (SEAP) (UniProt P05187 23-511); assay: ELISA, immobilized V5-, His-tagged SEAP, Fab culture supernatant, HRP anti-Fab detection
T2 construct: Tag control antigen, expressed in the same cells as the PCSK9 antigen and similarly purified; not shown: V5 and His tags
T2 sequence (P05187 23-511): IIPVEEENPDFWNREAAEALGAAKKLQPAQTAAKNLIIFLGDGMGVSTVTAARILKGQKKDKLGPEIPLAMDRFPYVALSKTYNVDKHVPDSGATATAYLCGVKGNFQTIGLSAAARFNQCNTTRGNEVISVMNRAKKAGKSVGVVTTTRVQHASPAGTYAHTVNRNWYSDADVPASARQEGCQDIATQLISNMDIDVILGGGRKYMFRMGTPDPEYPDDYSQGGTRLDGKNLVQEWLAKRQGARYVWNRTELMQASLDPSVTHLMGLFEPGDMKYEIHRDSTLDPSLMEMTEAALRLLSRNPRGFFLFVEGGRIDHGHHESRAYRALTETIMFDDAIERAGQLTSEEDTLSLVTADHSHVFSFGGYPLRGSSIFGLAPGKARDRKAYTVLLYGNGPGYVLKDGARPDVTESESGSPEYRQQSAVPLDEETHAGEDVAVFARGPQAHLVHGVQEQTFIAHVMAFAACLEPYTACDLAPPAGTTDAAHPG
Procedure: Cultures of individual transformants were IPTG-induced and grown overnight for Fab expression. Culture supernatants (candidate Fabs) were incubated with purified V5-, His-tagged PCSK9 protein immobilized in wells of 96-well Nunc Maxisorp plates, washed with 0.1% Tween™ 20 in PBS using a plate washer, incubated with HRP-coupled anti-Fab antibody, and washed again with PBS/Tween™ 20. Bound HRP was detected by addition of […] substrated, and A₄₅₀ values of wells were read with a plate reader.
EsB antigen was bound to three wells of the plate and subsequently incubated with anti-EsB Fab. To control for Fabs reacting with the V5 or His tags of the recombinant PCSK9 antigen, parallel ELISAs were performed using V5-, His-tagged secreted alkaline phosphatase protein (SEAP) expressed in the same cells as the original PCSK9 antigen and similarly purified. Putative PCSK9-reactive Fabs were identified as yielding>3× background values when incubated with PCSK9 antigen but negative when incubated with SEAP. Clones scoring as PCSK9-reactive in the first round of screening were consolidated onto a single plate, re-grown in triplicate, re-induced with IPTG, and re-assayed in parallel ELISAs vs. PCSK9 and SEAP. Positive and negative controls were included as described above. Clones scoring positive in at least 2 of 3 replicates were carried forward into subsequent characterizations. In cases of known or suspected mixed preliminary clones, cultures were re-purified by streaking for single colonies on 2×YT plates with chloramphenicol, and liquid cultures from three or more separate colonies were assayed again by ELISAs in triplicate as described above.

[5] = biological target: T1, recombinant human PCSK9, V5-, His-tagged; assay: cell-based or functional assay; remark: listed apart in the source
[6] = biological target: T1, recombinant human PCSK9, V5-, His-tagged; assay: SPR (Biacore 2000), Direct (PCSK9 immobilized, Fab in mobile phase), mean N = 2
[7] = biological target: T1, recombinant human PCSK9, V5-, His-tagged; assay: cell-based or functional assay; remark: listed apart in the source
[8] = biological target: T1, recombinant human PCSK9, V5-, His-tagged; assay: cell-based or functional assay; remark: listed apart in the source
[9] = biological target: T1, recombinant human PCSK9, V5-, His-tagged; assay: cell-based or functional assay; remark: listed apart in the source

| Binder | Kd [1] | koff [1] | kon [1] | IC50; Fab titrated against fixed PCSK9 (25 µg/ml), recovery of cellular diI-LDL uptake (Exopolar assay) [2] | inhibition of PCSK9-dependent inhibition of cellular LDL uptake (Exopolar assay) [3] | binding result [4] | IC50; Fab titrated against fixed PCSK9 (25 µg/ml), recovery of cellular diI-LDL uptake (Exopolar assay) [5] | Kd [6] | koff [6] | kon [6] | IC50; Fab titrated against fixed PCSK9 (25 µg/ml), recovery of cellular diI-LDL uptake (Exopolar assay) [7] | IC50; Fab titrated against fixed PCSK9 (25 µg/ml), recovery of cellular diI-LDL uptake (Exopolar assay) [8] | IC50; Fab titrated against fixed PCSK9 (25 µg/ml), recovery of cellular diI-LDL uptake (Exopolar assay) [9] |
| --- | --- | --- | --- | --- | --- | --- | --- | --- | --- | --- | --- | --- | --- |
| B1 | 0.55 nM | 0.000176 s⁻¹ | 335000 M⁻¹ s⁻¹ | 267 nM | 53% | no binding | – | – | – | – | – | – | – |
| B2 | 2.97 nM | 0.000685 s⁻¹ | 233000 M⁻¹ s⁻¹ | – | 61% | no binding | 127 nM | – | – | – | – | – | – |
| B3 | – | – | – | – | 25% | no binding | – | 23.1 nM | 0.000642 s⁻¹ | 28000 M⁻¹ s⁻¹ | 1250 nM | – | – |
| B4 | – | – | – | – | 23% | no binding | – | – | – | – | – | 107 nM | – |
| B5 | – | – | – | – | 23% | no binding | – | 7.01 nM | 0.000876 s⁻¹ | 166000 M⁻¹ s⁻¹ | – | – | 289 nM |
